Target: T1, Bacillus licheniformis subtilisin A (Bacillus licheniformis, UniProt P00780 106-379)
T1 sequence (looked up): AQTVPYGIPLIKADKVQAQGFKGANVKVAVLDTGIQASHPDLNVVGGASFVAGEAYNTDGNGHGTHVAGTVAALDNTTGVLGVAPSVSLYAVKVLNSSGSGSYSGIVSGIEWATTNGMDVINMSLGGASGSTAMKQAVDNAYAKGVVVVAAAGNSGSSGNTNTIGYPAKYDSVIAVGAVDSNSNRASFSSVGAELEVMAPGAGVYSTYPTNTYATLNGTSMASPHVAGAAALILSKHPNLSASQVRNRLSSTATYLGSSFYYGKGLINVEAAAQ
Assay: enzyme inhibition assay

B1: rCmPI-II R12A, alanine mutant at the P1 position of CmPI-II (natural protein, Cenchritis muricatus, UniProt P84755 1-50, looked up)
chain: AEDCVGRKACTAEWYPVCGSDGVTYSNPCNFSAQQEQCDPNITIAHMGEC
Question: B1 was tested. Which “fold decrease of IC50 against rCmPI-II” value did it give?
Answer: The value was 3 fold.

From publication PMC8131977 (Biochemistry and Biophysics Reports, 2021)
